# Results published in the nanobody polyreactivity screen of Harvey et al. (2022).
# Experiment: yeast display, Sf9 membrane polyspecificity reagent, FACS + sequencing; frameworks hold sequencing errors
# Procedure, shortened: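 A synthetic nanobody library was expressed on Saccharomyces cerevisiae BJ5465 by galactose induction for 36–48 hours. The library was stained for 1 hour at 4 °C with 10% biotinylated, detergent-solubilized Sf9 membrane reagent and enriched with streptavidin microbeads before FACS. Low and high (top ~1%) gates were set on anti-HA fluorescence for expression and streptavidin fluorescence for reagent binding, and each polyreactivity label reflects the gate of origin.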
row,Sequence,polyreactivity (PSR sort gate)
1,QVQLVESGGGLVQAGGSLRLSCAASGLIFVGNAMGWYRQAPGKERELVAAISASTDNTYYADSVKGRFTISRDNAKNTVYLQMISLKPEDTAVYYCNAEQSRNSGKHDYWGQGTQVTVSS,low polyreactivity
2,QVQLVESGGGLVQAGGSLRLSCAASGFIVDYYAMGWYREAPGKERELVAAIDDSAGSTYYADSVKGRFTISRDNAKNTVYLQMNSLKPEDTAVYYCAADIYVEYDYWGQGTQVTVSS,low polyreactivity
3,QVQRVESGGGLVQAGGSLRLSCAASGFTIGSYAMGWYRQAPGKERELVAAITRRGGSTYYADSEKGRYTISRDNAKNTVSLQMNSLKPEDTAVYYCGKRSRDYVSSFRTSHANDYWGQGTQVTVSS,high polyreactivity
4,QVQLVEAGGGLVQAGGSLRLSCAAYGRTFYTYAMGWYRQAPGKEREFVAAITWSGGSTYYADSVKGRFTISRDNAKNTVYLQMNSLKPEDPAVYYCAAGSRFRYSPGQSYEYGYWGQGTQVTVSS,low polyreactivity
5,QVQLQESGGGLVQAGGSLRQSYAASGYIFPYLAMGWYRQAPGKEREFVAAIGRGSTNNYADSVKGRFTISRDNAKNTAYQQMNSLKPEDTAVYYCAGAASPLTRHLYWGQGNQVTVSS,low polyreactivity
6,QVQLVESGGGLVQAGGSLRLSCAASGSIFVPYAMGWYRQAPGKERELVAAISRGGDTNYADSVKGRFTISRDNAKNTVYLQMNSLKPEDTAVYYCNRARHQSSRWHGGYYYWGQGTQVTVSS,low polyreactivity
7,QVQLVESGGGLVQAGGSLRLSCAASGFTLYAYVMGWYRQAPGKERELVAAISRSGGSTYYADSVKGRFTISRDNAKNTVYLQMNSLKPEDTAVYYCAAQSKYYQYYSWGQGTQVTVSS,high polyreactivity
8,QVQLVESGVGLVQAGGSLRLSCAASGFTFRRYAMGWYRQAPGKERELVAAISIRGGRTYYADSVKGRFTISRDNAKNTVYLQMNSLKPEDTAVYYCAADGVYALDVESDSWGQGTQVTVSS,high polyreactivity
9,QVQLVESGGGLVQAGGSLRLSCAASGIIFGGYDMGWYRQATGKERELVAAISWSGGSTYYADSVKGRFTISRDTAKNTVYLQMNSLKPEDTAVYYCAAAYYAPTRDYYYWGQGTQVTVSS,low polyreactivity
10,QVQLVESGGGLVQAGGSLRLSCAASGFTFYYYAMGWYRQAPGKERELVAAIDTSDGSTYYADSVKGRFTISRDNAKNTVYLQMNSLKPEDTAVYYCAAEVDCVPFLLDYWGQGTQVTVSS,low polyreactivity
11,QVQLVESGGGLVQAGGSLRLSSAASGSTIRFNAMGWYRQAPGKERELVAVIRWRGGTTYYADSVKGRFTISRDNAKNTVYLQINSLKPEDSAVYYCNADYWFSYTWHGSYTVGYWGQGTQVTVSS,high polyreactivity
12,QVQLVESGGGLVQAGGSLRLSCAASGRTSGYYAMGWYRQAPGKERELVAAISGGDSTNYADSVKGRFTFSRDNAKNTVYLQMNSLKPEDTAVYYCAKRTRVSWVPTFDYWGQGTQGTVSS,low polyreactivity
13,QVQLVESGGGLVQAGGSLRLSCAASGRIFRYYAMGWYRQAPGKERELVAVISSRGGSTFYADSVKGRFTISRDNAKNTVYLQMNSLKPEDTAVYYCASRSLYVGYDYWGQGTQVTVSS,high polyreactivity
14,QFQLVESGGGLVQAGGSLRLSCAASGFIFKRYTMGWYRQAPGKERELVAAISFSGGSTYYADSVKGRFTISRDNAKNTVYLQMNSLKPEDTAVYYCAKVYRVVPATQKEYGYWGQGTQVTVSS,high polyreactivity
15,QVQLVESGGGLVQAGGSLRLSCAASGFTFYSYAMGWYRQAPGKERELVAAISWSGTRTYYADSVKGRFTISRDNAKNTVYLQMNSLKPEDTAVYYCAARGYRYGYGYWGQGTQVTVSS,high polyreactivity
16,QVQLVESGGGLVQAGGSLRLSCAAYGRTFWSYAMGWYRQAPGKERELVADISLDDGTTYYADSVKGRFTISRDNAKNTVYLHMNSLKPEDTAVYYCAAERDQGDDGYGPDYGYWGQGTQVTVSS,high polyreactivity
17,QVQLVESGGGLVQAGGSLRLSCAASGFTFLSYTMGWYRQAPGKERELVASITASGTRTYYADSVKGRFTISRDNAKNTVYLQMNRLKPEDTSVYYCAARRSGSGSHDYGYWGQGTQVTVSS,low polyreactivity
18,QVQRVESGGGLVQAGGSLRLSCAASGRIFALYARGWYRQAPGKEREWVAAISWSGGSTFYADSVKGRFTSSRDTAKNTVYLQMTSLKPEEPAVYYCNKDHLVYPSEFYYWGQGTQVTVSS,low polyreactivity
19,QVQLVESGGGLVQAGGSLRLSCAASGRTFIINTMGWSRQATGTERELVAAISKNGATTNYADSVKGRFTISRDNAKNTVYLQMNSLKPEDTAVYYCNARYSGYLRLDYWGQGTQVTVSS,low polyreactivity
20,QVQLVESGGGLVQAGGSLRLTCAASGNTFYQYAMGWYRQATGKERELVAAISSSGGSTYYADSVKGRFTISRDNAKNTVYLQMNSLKPEDTAVYYCATDKWYGYYYWGQGTQVTVSS,low polyreactivity
21,QVQLVESGGGLVQAGGSLRLSCAASGFISDWYAMGWYRQAPGKERELVATIDWIGGSTYADSVKGRFTISRDNAKNTVYLQMNSLKPEDTAVYYCAADSYFIAWYGAHYAYDYWRQGTQVTVSS,low polyreactivity

row,Sequence,polyreactivity (PSR sort gate)
1,QVQLVESGGGLVQAGGSLRLSCAASGIIFRRNAMGWYRQAPGKERELVATISRSGGSTYYADSVKGRFTISRYNAKNTVYLQMNSLKPEDTAVYYCNTLYPRPYAINPRDYWGQGTQVTVSS,high polyreactivity
2,QVQLVESGGGLDQAGGSLRLSCAASGRIFGRYAMGWYRQAPGKERELVASISRGGSTNYADSVKGRFTISRDNAKNTVYLQMNSLKPEDTAVYYCAKSGGVGGEDRVGSWGQGTQVTVSS,low polyreactivity
3,QVQLVESGGGLVQAGGSLRLSCAASGRIFGAYAMGWYRQAPGKERELVAAITQSGGSTFYADSVKGRFTISRDNAKNTVYLQMNSLKPEDTAVYYWGQGTQVTVSS,low polyreactivity
4,QVQLVESGGGLVQAGGSLRLSCAASGYIIRRYSMVWYIQAPGKESEWVAVISSRGGSTYYADSVKGRFTISRDYAKNTVYLQMNSLKPEDTPVYYCAARSGSRATVLSDYWGQGTQVTVSS,high polyreactivity
5,QVQLVESGGGLVQAGGSLRLSCAASGSTFILKAMGWYRQAPGKERELVATISSSDTSPYYADSVKGRFTISRDTAKNTVYLQMNSLKPEDTAVYYCNADYYTTSYLQRVYHYGVDYDYWGQGTQVTVSS,low polyreactivity
6,QVQLVESGGRLVKAGGSLRLSCAASGRTFSSYAMGWYRHAPGKERELVAAISSGGSTYYADSVKGRFTISRDNAKNTVYILMNSQIPEDTAVYYCNRRLYYKIGRGFSYYWGQGTQVTVSS,high polyreactivity
7,QVQLVESGGGLVPAGGSLRLSCAASGFTFDSYAMGWYRQAPGKERELVAAMSYRGGTTYYADSVKGRFTISRDNAKNTVYLQMNSLKPEDTAVYYCTRLWKYGYNYWGQGTQVTVSS,high polyreactivity
8,QVQLVESGGGLVQAGGSLRLSCAASGSIFAGYAMGWYRQAPGKERELVATITSGGSTNYADSVKGRFTISRDNAKNTVYFHMNSLKPEVTAVYYCAADVEDSIPSSYTGGEYDYWGQCTQVTVSS,low polyreactivity
9,QVQLVESGAGLVQAGGSLRLSCAASGSTFPVYAMGWYRQAPGKEREFVAAITYSGARTYYADSVKGRFTISRDNAKNTVYLQMNSLKPEDTAVYYCNAVPYRYLLHGTRCPFSRGYDSWGQGTQVTVSS,high polyreactivity
10,QVQLVESGGGLVQAGGSLRLSCAASGRSYRRNTMGWYRQAPGKERELVAAISNRGTSTYYADSVKGRFTISRDNEKNTVYLLMNSLKPEDTAVYYCAARGVRSYFFPYNYWGQGTQVTVSS,high polyreactivity
11,QVQLVETGGGLVQAGGSLRLSCAASGRTFYFNTMGWYRQAPGKERELVAAISSGVNTYYADSVKGRFTISRDNAKNTVYLQMNSLKPEDTAVYYCAASARTYVQSGYWGQGTQVTVSS,high polyreactivity
12,QVQLVESGGGLVQAGGSLRLSCAASGSTFVRNDMGLYRQAPGKERELVAAITRGGRTYYADSVKGRFTISRDNAKNTVYLQMNSLKPEDTAVYYCAAEGTGYSVGWQYGYWVQGTQVTVSS,low polyreactivity
13,QVQLVESGGGLVQAGGSLRLSCAAYGSTFWANAMGWYRQAPGKERELVAAIRGTGGSTYADSVKGRFTISRDNAKNTVYLQMNSLKPEDTAVYYCNAKGRGWTAQYDYWGQGTQVTVSS,low polyreactivity
14,QVQLVESGGGVVQAGGSLRLSCAASGRIFGGYAMGWYRQAPGKERELVAAISGSGGRTDYADSVKGRFTISRDNAKNTVYLQMNSLKPDDTAVYYCNKGYVYGHEYWGQGTQVTVSS,high polyreactivity
15,QVQLVESGGGLVQAGGSLRLSCASSGSIFVANAMGWYRQAPGKERELVAAISVRGGRTYYADSVKGRFTISRDNAKNTVYLQMNSLKPEDTAVYYCARVLRSDVADYDYWGQGTQVSVSS,high polyreactivity
16,QVQLVESGGGLVQAGGSLRLSCAACGSIFRRYAMGWYRQAPGKERELVASIRGGGGTYYADSVKGRFTISRDNAKNTVYLQMNSLKPEDTAVYYCAATRYLAYFRKSFYYWGQGTQVTVSS,high polyreactivity
17,QVQLVESGGGLVHAGGSLRLSCAASGIIFGSYAMGWYRQAPGKERELVAAITRSGGRTYYADSVKGRFTISRDNAKNTVYLQMNSLKPEDTAVYYCAADRGYRGATGKYDSWGQGTEVTVSS,high polyreactivity
18,QVLLVESGGGLVQAGGSLRLSGAASGSTFYNYAMGWNRQAPGKERELVASISDDGSTNYADSVKGRFTISRDNAKNTVYLQMNSLKQVDSAVYSCAAVWWLQFGSAWYQMGYWGQGTQVTVSS,low polyreactivity
19,QVQLVESGGGLVQAGGSLRLSCAASGRIFSFYAMGWYRQAPGKERELVATISDGGATTYYADSVKGRFTISRDNAKNTVYLQMNSLKPEDTAVYYCNARRESYYQRYRVDYWGQGTQVTVSS,low polyreactivity
20,QVQLVESGGGLVQAGGSLRLSCAASGRTFTSNAMRWYRQEPGNERELVAAISNRGTRTYYADSVKGRFTISRDNAKNTVYLQMHILKPEETAVYYCAASERDQRFKHYYWGLGTQVTVSS,high polyreactivity
